± gives the uncertainty stated by the source.
Experiment: protein stability index of a GFP-peptide fusion (yeast GPS) (PSI 1-4); higher = more stable; sorted into four equal gates, so the index is relative within each strain
In short: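 Peptides tiling yeast proteins in 17-residue segments were fused downstream of GFP, with Cherry expressed from the same plasmid. As a pooled library in yeast, mid-log cultures grown in leucine-free medium were sorted into four equal gates by GFP/Cherry fluorescence ratio. Gate plasmids were PCR-amplified and Illumina-sequenced, and barcodes linked reads to strains. Each peptide received a protein stability index equal to the sum of each gate's read frequency times its gate number.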

Sequence: ARNVTFDSLRNFIVHSP [GRR1]
- protein stability index (doa10∆): 2.14 ± 0.063
- protein stability index (pdr5∆): 2.35 ± 0.057
- protein stability index (san1∆): 2.25 ± 0.08
- protein stability index (ubr1∆): 1.94 ± 0.041

Sequence: TCGSKGSTLNVSQMVAV [RPO31]
- protein stability index (doa10∆): 3.1 ± 0.13
- protein stability index (pdr5∆): 2.89 ± 0.097
- protein stability index (san1∆): 2.91 ± 0.15
- protein stability index (ubr1∆): 2.79 ± 0.15

Sequence: SYSPTSPSYSPTSPAYS [RPO21]
- protein stability index (doa10∆): 3 ± 0.071
- protein stability index (pdr5∆): 3.05 ± 0.063
- protein stability index (san1∆): 2.73 ± 0.062
- protein stability index (ubr1∆): 3.15 ± 0.048

Sequence: PGHSLLLSIKLPGKVNT [SNF5]
- protein stability index (doa10∆): 2.37 ± 0.059
- protein stability index (pdr5∆): 1.77 ± 0.039
- protein stability index (san1∆): 2.08 ± 0.058
- protein stability index (ubr1∆): 2.29 ± 0.04

Sequence: LLSIPISCPLIGVIQLA [FAS1]
- protein stability index (doa10∆): 1.23 ± 0.07
- protein stability index (pdr5∆): 1.27 ± 0.068
- protein stability index (san1∆): 1.23 ± 0.12
- protein stability index (ubr1∆): 1.08 ± 0.064

Sequence: ETLEHNPVALEQKLVDL [BRR2]
- protein stability index (doa10∆): 2.15 ± 0.092
- protein stability index (pdr5∆): 2.79 ± 0.077
- protein stability index (san1∆): 2.43 ± 0.074
- protein stability index (ubr1∆): 2.35 ± 0.11

Sequence: PVYATIGVETGSEPLIQ [PRP28]
- protein stability index (doa10∆): 2.84 ± 0.066
- protein stability index (pdr5∆): 3.1 ± 0.076
- protein stability index (san1∆): 2.92 ± 0.064
- protein stability index (ubr1∆): 2.86 ± 0.12

Sequence: GDRGALARASGNYVIII [RPL2A]
- protein stability index (doa10∆): 2.82 ± 0.11
- protein stability index (pdr5∆): 2.81 ± 0.11
- protein stability index (san1∆): 2.84 ± 0.11
- protein stability index (ubr1∆): 2.75 ± 0.14

Sequence: PRLEKLINEILLKSNDP [RGR1]
- protein stability index (doa10∆): 1.68 ± 0.059
- protein stability index (pdr5∆): 2.01 ± 0.045
- protein stability index (san1∆): 1.75 ± 0.079
- protein stability index (ubr1∆): 1.86 ± 0.039

Sequence: KENGQLIGAATKFKGGK [SEC65]
- protein stability index (doa10∆): 1.7 ± 0.057
- protein stability index (pdr5∆): 1.65 ± 0.073
- protein stability index (san1∆): 1.54 ± 0.11
- protein stability index (ubr1∆): 2.17 ± 0.072

Sequence: EDMIDQVSKKLSSIEAS [SMC3]
- protein stability index (doa10∆): 3.07 ± 0.16
- protein stability index (pdr5∆): 2.54 ± 0.15
- protein stability index (san1∆): 2.84 ± 0.12
- protein stability index (ubr1∆): 3.05 ± 0.12

Sequence: IAASAFLSLLNLATKGM [REC8]
- protein stability index (doa10∆): 1.54 ± 0.054
- protein stability index (pdr5∆): 1.52 ± 0.054
- protein stability index (san1∆): 1.71 ± 0.1
- protein stability index (ubr1∆): 1.62 ± 0.046

Sequence: NRPNTLDPALLRPGRID [RPT1]
- protein stability index (doa10∆): 2.72 ± 0.14
- protein stability index (pdr5∆): 3.01 ± 0.14
- protein stability index (san1∆): 3.16 ± 0.064
- protein stability index (ubr1∆): 2.61 ± 0.13

Sequence: SETPLQKTVNLKNIMKV [RPN4]
- protein stability index (doa10∆): 2.25 ± 0.08
- protein stability index (pdr5∆): 2.6 ± 0.085
- protein stability index (san1∆): 2.56 ± 0.11
- protein stability index (ubr1∆): 2.48 ± 0.043

Sequence: IMWQLLDGVSYLHQNWV [SSN3]
- protein stability index (doa10∆): 1.61 ± 0.074
- protein stability index (pdr5∆): 1.59 ± 0.08
- protein stability index (san1∆): 1.23 ± 0.12
- protein stability index (ubr1∆): 1.75 ± 0.076

Sequence: VDIGGKQHAVLMLGSVN [RRP4]
- protein stability index (doa10∆): 2.06 ± 0.052
- protein stability index (pdr5∆): 2.66 ± 0.052
- protein stability index (san1∆): 2.68 ± 0.06
- protein stability index (ubr1∆): 2.6 ± 0.037

Sequence: LDESSEQKNTAKEELNG [YIL149C/MLP2]
- protein stability index (doa10∆): 3.1 ± 0.15
- protein stability index (pdr5∆): 2.95 ± 0.27
- protein stability index (san1∆): 3.21 ± 0.072
- protein stability index (ubr1∆): 3.22 ± 0.087

Sequence: DRINYTETALMNLKKEL [SRB5]
- protein stability index (doa10∆): 3.14 ± 0.14
- protein stability index (pdr5∆): 3.28 ± 0.16
- protein stability index (san1∆): 3.41 ± 0.088
- protein stability index (ubr1∆): 3.18 ± 0.095

Sequence: AQQVPPYGVYHPPFIKY [SIN4]
- protein stability index (doa10∆): 2.99 ± 0.12
- protein stability index (pdr5∆): 1.61 ± 0.094
- protein stability index (san1∆): 2.33 ± 0.074
- protein stability index (ubr1∆): 2.18 ± 0.069

Sequence: DVDPIELVVFLPALCKK [RPL8A]
- protein stability index (doa10∆): 2.78 ± 0.092
- protein stability index (pdr5∆): 2.8 ± 0.089
- protein stability index (san1∆): 2.64 ± 0.13
- protein stability index (ubr1∆): 3.03 ± 0.057

Sequence: NVGDNNSTASSSNISPE [ARP7]
- protein stability index (doa10∆): 2.83 ± 0.089
- protein stability index (pdr5∆): 3.11 ± 0.062
- protein stability index (san1∆): 3.04 ± 0.055
- protein stability index (ubr1∆): 3.08 ± 0.045

Sequence: KYYLEESNVNDSDMLTK [NUT1]
- protein stability index (doa10∆): 3.13 ± 0.097
- protein stability index (pdr5∆): 3.15 ± 0.082
- protein stability index (san1∆): 3.31 ± 0.07
- protein stability index (ubr1∆): 3.36 ± 0.086

Sequence: IDVNLNFARQLLFNNDF [RRP40]
- protein stability index (doa10∆): 2.93 ± 0.064
- protein stability index (pdr5∆): 1.56 ± 0.057
- protein stability index (san1∆): 1.36 ± 0.13
- protein stability index (ubr1∆): 1.82 ± 0.05

Sequence: VEDELTESIALSSMRFK [RRI1]
- protein stability index (doa10∆): 3.21 ± 0.067
- protein stability index (pdr5∆): 3.38 ± 0.051
- protein stability index (san1∆): 3.21 ± 0.062
- protein stability index (ubr1∆): 3.28 ± 0.051

Sequence: MGMDLYKTSKAAQDVWN [FAS1]
- protein stability index (doa10∆): 3.08 ± 0.13
- protein stability index (pdr5∆): 3.37 ± 0.16
- protein stability index (san1∆): 3.08 ± 0.13
- protein stability index (ubr1∆): 3.43 ± 0.077

Sequence: KTITSGLKYALATGNWG [RPB2]
- protein stability index (doa10∆): 2.32 ± 0.066
- protein stability index (pdr5∆): 2.33 ± 0.056
- protein stability index (san1∆): 2.19 ± 0.079
- protein stability index (ubr1∆): 2.31 ± 0.048

Sequence: NEKMQLLKDIFANNLKS [SIR4]
- protein stability index (doa10∆): 2.28 ± 0.048
- protein stability index (pdr5∆): 2.41 ± 0.051
- protein stability index (san1∆): 1.95 ± 0.083
- protein stability index (ubr1∆): 2.19 ± 0.048

Sequence: EWQDIIHQREQELQIKR [CSE2]
- protein stability index (pdr5∆): 3.5 ± 0.17
- protein stability index (san1∆): 3.29 ± 0.26
- protein stability index (ubr1∆): 3.13 ± 0.23

Sequence: SSDVDMDDEEWRSKRIE [RPC53]
- protein stability index (doa10∆): 3.47 ± 0.1
- protein stability index (pdr5∆): 3.17 ± 0.1
- protein stability index (san1∆): 3.42 ± 0.053
- protein stability index (ubr1∆): 3.31 ± 0.069

Sequence: CLEDPEKPFNENRFQDT [POP4]
- protein stability index (doa10∆): 2.68 ± 0.15
- protein stability index (pdr5∆): 3.02 ± 0.16
- protein stability index (san1∆): 2.64 ± 0.24
- protein stability index (ubr1∆): 3.03 ± 0.099

Sequence: CTLTADGAYALSASWDK [ASC1]
- protein stability index (doa10∆): 3.08 ± 0.051
- protein stability index (pdr5∆): 3.25 ± 0.051
- protein stability index (san1∆): 3.19 ± 0.075
- protein stability index (ubr1∆): 3.19 ± 0.038

Sequence: IRKSETSGRYASYRICM [RPB5]
- protein stability index (doa10∆): 2.57 ± 0.088
- protein stability index (pdr5∆): 2.89 ± 0.063
- protein stability index (san1∆): 2.9 ± 0.072
- protein stability index (ubr1∆): 2.97 ± 0.086

Sequence: IYQIHIPYAAKLLFQEL [RPB2]
- protein stability index (doa10∆): 2.64 ± 0.12
- protein stability index (pdr5∆): 1.98 ± 0.12
- protein stability index (ubr1∆): 2.88 ± 0.077

Sequence: RVRVTGGGHVSQVYAIR [RPS16A]
- protein stability index (doa10∆): 2.61 ± 0.048
- protein stability index (pdr5∆): 2.87 ± 0.045
- protein stability index (san1∆): 2.93 ± 0.044
- protein stability index (ubr1∆): 2.76 ± 0.031

Sequence: DLKAQFQELDSKKQRNN [RPN9]
- protein stability index (doa10∆): 3.21 ± 0.088
- protein stability index (pdr5∆): 3.2 ± 0.08
- protein stability index (san1∆): 3.09 ± 0.078
- protein stability index (ubr1∆): 3.33 ± 0.052

Sequence: PSFMLKHHQLFYMLNAG [RPN1]
- protein stability index (doa10∆): 1.33 ± 0.099
- protein stability index (pdr5∆): 1.53 ± 0.11
- protein stability index (san1∆): 1.18 ± 0.19
- protein stability index (ubr1∆): 1.12 ± 0.086

Sequence: AKNETNSESDSKSDSDS [ITC1]
- protein stability index (doa10∆): 3.01 ± 0.05
- protein stability index (pdr5∆): 3.03 ± 0.049
- protein stability index (san1∆): 3.09 ± 0.047
- protein stability index (ubr1∆): 2.88 ± 0.042

Sequence: IKILGSEGYQKTFSRLD [RPN4]
- protein stability index (doa10∆): 1.28 ± 0.089
- protein stability index (pdr5∆): 1.55 ± 0.15
- protein stability index (san1∆): 1.05 ± 0.24

Sequence: CHDELKALPMLEQVEFE [MED4]
- protein stability index (doa10∆): 3.17 ± 0.14
- protein stability index (pdr5∆): 3.12 ± 0.3
- protein stability index (san1∆): 2.7 ± 0.21
- protein stability index (ubr1∆): 3.29 ± 0.12

Sequence: TLVEIFLERKCVHMVYE [SSN3]
- protein stability index (doa10∆): 1.35 ± 0.063
- protein stability index (pdr5∆): 1.7 ± 0.071
- protein stability index (san1∆): 1.52 ± 0.11
- protein stability index (ubr1∆): 1.75 ± 0.048

Sequence: QACGLVKNLSLMSCISV [RPB2]
- protein stability index (doa10∆): 1.49 ± 0.073
- protein stability index (pdr5∆): 1.75 ± 0.06
- protein stability index (san1∆): 2.44 ± 0.083
- protein stability index (ubr1∆): 2.17 ± 0.075

Sequence: QRIIKELSIRFPQYKLT [ARP7]
- protein stability index (doa10∆): 1.9 ± 0.058
- protein stability index (pdr5∆): 1.67 ± 0.089
- protein stability index (san1∆): 2.12 ± 0.081
- protein stability index (ubr1∆): 1.7 ± 0.047

Sequence: PGDVLDKDAFIPKLKPA [SNU114]
- protein stability index (doa10∆): 1.89 ± 0.094
- protein stability index (pdr5∆): 1.5 ± 0.098
- protein stability index (san1∆): 1.2 ± 0.18
- protein stability index (ubr1∆): 1.71 ± 0.12

Sequence: WVNNPKKRFTPHTVIRR [YDL088C/ASM4]
- protein stability index (doa10∆): 3.42 ± 0.23

Sequence: NVTSSGDHNKLRSTIAN [YML103C/NUP188]
- protein stability index (doa10∆): 2.43 ± 0.051
- protein stability index (pdr5∆): 2.48 ± 0.062
- protein stability index (san1∆): 2.35 ± 0.071
- protein stability index (ubr1∆): 2.02 ± 0.033

Sequence: KRAASVARHIYMRKQVG [RPS19A]
- protein stability index (doa10∆): 1.7 ± 0.2
- protein stability index (san1∆): 1.88 ± 0.28

Sequence: LEIRNKICSSEMINEQK [RGR1]
- protein stability index (doa10∆): 3.02 ± 0.11
- protein stability index (pdr5∆): 2.91 ± 0.14
- protein stability index (san1∆): 3.01 ± 0.15
- protein stability index (ubr1∆): 2.9 ± 0.12

Sequence: IIVKDKSNDSEGDFLKS [POP1]
- protein stability index (doa10∆): 3.06 ± 0.3
- protein stability index (san1∆): 3.14 ± 0.11

Sequence: LNKFKKAIFQFVCRGMA [ECM29]
- protein stability index (doa10∆): 2.06 ± 0.1
- protein stability index (pdr5∆): 2.08 ± 0.071
- protein stability index (san1∆): 2.6 ± 0.11
- protein stability index (ubr1∆): 1.92 ± 0.052

Sequence: DLKLPPMDAYLKLNHII [SNU114]
- protein stability index (doa10∆): 3.09 ± 0.28
- protein stability index (pdr5∆): 2.94 ± 0.18
- protein stability index (san1∆): 2.52 ± 0.099
- protein stability index (ubr1∆): 2.68 ± 0.12

Sequence: SRDLWCFSINDDPVPTP [SSN2]
- protein stability index (doa10∆): 2.21 ± 0.085
- protein stability index (pdr5∆): 2.21 ± 0.088
- protein stability index (san1∆): 2.94 ± 0.081
- protein stability index (ubr1∆): 2.63 ± 0.1
